Experimental data published in patent US20060205646A1.

Molecular target: MMPs in infected porcine wound fluid
Assay: cell-based or functional assay

With “γ-D-crystallin (from UniProt P07320 2-174)” the inhibition of MMP activity (Fluorogenic Peptide Substrate I), 0.4 mg/mL γ-D-crystallin was 50%.
